For test [1], the target named is HIV-1 capsid protein p24 (His-p24) (HIV-1) (UniProt P12493). Nature of the test: BLI; in the same nanobody storage buffer (Fig. S5). Background: BLI is a label-free optical method that tracks binding on a fibre tip over time.
Test [2] shares this target. Nature of the test: ITC; nanobody (200 uM, syringe) titrated into His-p24 (12.5 uM, cell); 10 mM phosphate pH 8, 25 mM NaCl; 25.1 C; at least triplicate. (In general: ITC needs no label: the signal is the heat of the interaction.)

From PMC9892613 come the findings set out here.

By Kd is commonly meant the concentration at which binding is half-saturated.

Where “and” joins values, the source holds several entries; their conditions need not be identical. Equal values may be shown once.

B1: nanobody 59H10 (VHH)
VHH: DVQLQESGGGLVQAGGSLRLSCAASGSISRFNAMGWWRQAPGKEREFVARIVKGFDPVLADSVKGRFTISIDSAENTLALQMNRLKPEDTAVYYCFAALDTAYWGQGTQVTVSS
Consider B1, for which the Kd in test [1] was 0.77 nM. The dH in test [2] was -3.9 kcal/mol.

B2: nanobody 37E7 (VHH)
VHH: DVQLQESGGGLVQAGGSLRLSCAASGSISRFNAMGWWRQAPGKEREFVARIVKGGYAVLADSVKGRFTISIDSAENTLALQMNRLKPEDTAVYYCFAALDTAYWGQGTQVTVSS
In turn, B2 came in with a dissociation constant (Kd) in test [1] of 9.6 nM. Besides, in test [2], the dH is -4.1 kcal/mol and -4.09 kcal/mol.
